Laboratory results from patent US5831003A, “Peptides which bind to prothrombin and thrombin” (Bayer Corporation, priority 1996, dated 1998).
Ends that are not written are not given here.

What was measured:
α-thrombin [1] = target: T1, α-thrombin (Homo sapiens, UniProt P00734); experiment: Confirmatory binding assay in column chromatographic format, peptides synthesized on A-Totda-Toyopearl; conditions: for dose dependence of thrombin in the acid eluant (in words): 50, 100 and 200 μg α-thrombin; for binding of thrombin to peptide resin (in words): summary of Table 2
T1 construct: α-Thrombin is the active form of the plasma serine protease zymogen, prothrombin; purchased Enzyme Research Labs (South Bend, Ind.)
Experimental: Confirmatory binding assays were performed in a column chromatographic format on a microbore HPLC using individual peptide sequences synthesized directly onto the Toyopearl 650 M Chelate resin which had been modified with Totda followed by an alanine residue (A-Totda-Toyopearl), at a final substitution density of 0.2 mmol/g resin. […] The endpoint was a dose-dependent increase in the acid eluate in the thrombin contactings, and quantification was by integration of the absorbance at 280 nm.

α-thrombin [2] = target: T1, α-thrombin; experiment: Purification of α-thrombin from activated PTC eluate on YFPGPYL-Totda-Toyopearl; type: binding
Experimental: Human pooled plasma was processed to PTC eluate by standard manufacturing procedures as indicated in Example 1. A sample of the PTC eluate was activated in the presence of 50 mM CaCl2 for 6 days at 4° C. Approximately 1 ml of the activated PTC eluate, spiked with 300 μg α-thrombin, was injected onto the peptide resin YFPGPYL-Totda-Toyopearl (FIG. 6). The column was washed with equilibration buffer (10 mM HEPES, pH 6.5, 10 mM CaCl2, 500 mM NaCl, 0.1% (v/v) PEG-400) until the A280 returned to base-line. […] Acid treatment (2% acetic acid) was used as a cleaning step to remove protein still bound to the column.

[3] = 50 μg α-thrombin applied, integration of A280
[4] = 100 μg α-thrombin applied, integration of A280
[5] = 200 μg α-thrombin applied, integration of A280

Substance | Absorbance, 280 nm 1M NaCl Eluate (α-thrombin [1]; [3]) | Absorbance, 280 nm 2% Acetic Acid (α-thrombin [1]; [3]) | Absorbance, 280 nm 1M NaCl Eluate (α-thrombin [1]; [4]) | Absorbance, 280 nm 2% Acetic Acid (α-thrombin [1]; [4]) | Absorbance, 280 nm 1M NaCl Eluate (α-thrombin [1]; [5]) | Absorbance, 280 nm 2% Acetic Acid (α-thrombin [1]; [5]) | dose dependence of thrombin in the acid eluant (in words) (α-thrombin [1]) | binding of thrombin to peptide resin (in words) (α-thrombin [1]) | thrombin content of protein released by 1 mM sodium citrate pH 7.0 (α-thrombin [2]; quantitative scanning of SDS-PAGE, activated PTC eluate spiked with 300 μg α-thrombin) | binding of thrombin from activated PTC eluate (in words) (α-thrombin [2]; released by 1 mM sodium citrate pH 7.0) | Absorbance, 280 nm 2% Acetic Acid (α-thrombin [1]; 50 μg α-thrombin applied in a solution containing 5 mg/ml hSA) | Absorbance, 280 nm 2% Acetic Acid (α-thrombin [1]; 100 μg α-thrombin applied in a solution containing 5 mg/ml hSA) | Absorbance, 280 nm 2% Acetic Acid (α-thrombin [1]; 200 μg α-thrombin applied in a solution containing 5 mg/ml hSA)
PFPYVW (not fully specified (C-terminus)) [peptide synthesized on A-Totda-Toyopearl resin] | np | 2.82 | np | 2.14 | np | 3.32 | not in a dose dependent manner | bound thrombin |  |  |  |  | 
PFPYGW (not fully specified (C-terminus)) [peptide synthesized on A-Totda-Toyopearl resin] | np | 0.47 | np | 0.79 | np | 1.37 |  | bound thrombin |  |  |  |  | 
SVRPFL (not fully specified (C-terminus)) [peptide synthesized on A-Totda-Toyopearl resin] | np | 0.57 | np | 0.71 | np | 2.06 |  | bound thrombin |  |  |  |  | 
VFPYAW (not fully specified (C-terminus)) [peptide synthesized on A-Totda-Toyopearl resin] | 0.16 | 1.48 | 0.18 | 1.57 | np | 3.59 |  | bound thrombin |  |  |  |  | 
LFAPTL | np | 0.18 | np | 0.44 | np | 1.25 |  | bound thrombin |  |  |  |  | 
RQLWQSH [RQLWGSH, variant of QLWGSH with added amino-terminal arginine, on A-Totda-Toyopearl resin] | np | 0.75 | np | 1.49 | np | 2.83 |  | enhanced binding |  |  |  |  | 
LTPFAV (not fully specified (C-terminus)) [peptide synthesized on A-Totda-Toyopearl resin] | np | 0.00 | np | 0.00 | np | 0.00 |  |  |  |  |  |  | 
PFPYAW (not fully specified (C-terminus)) [peptide synthesized on A-Totda-Toyopearl resin] | np | 0.50 | np | 1.05 | np | 1.10 |  | bound thrombin |  |  |  |  | 
YTPFAV (not fully specified (C-terminus)) [peptide synthesized on A-Totda-Toyopearl resin] | np | 0.16 | np | 0.28 | np | 0.34 |  | bound thrombin |  |  |  |  | 
ERPYKG (not fully specified (C-terminus)) [peptide synthesized on A-Totda-Toyopearl resin] | 0.23 | 0.41 | 0.23 | 0.99 | 0.26 | 2.38 |  | bound thrombin |  |  |  |  | 
PFAPTL | np | np | np | np | np | np |  | not |  |  |  |  | 
VTPFAV (not fully specified (C-terminus)) [peptide synthesized on A-Totda-Toyopearl resin] | np | 0.00 | np | 0.00 | np | 0.00 |  |  |  |  |  |  | 
VFPYVW (not fully specified (C-terminus)) [peptide synthesized on A-Totda-Toyopearl resin] | np | 0.81 | np | 1.21 | np | 1.81 |  | bound thrombin |  |  |  |  | 
YFPGPYL (not fully specified (C-terminus)) |  |  |  |  |  |  | dose dependent increase | bound thrombin | at least 72% | thrombin bound | 2.10 | 2.93 | 4.72
GFRKGP (not fully specified (C-terminus)) [peptide synthesized on A-Totda-Toyopearl resin] | 0.12 | 0.41 | 0.15 | 0.77 | 0.25 | 1.71 |  | bound thrombin |  |  |  |  | 
VFPYGW (not fully specified (C-terminus)) [peptide synthesized on A-Totda-Toyopearl resin] | np | 0.88 | np | 1.46 | np | 2.01 |  | bound thrombin |  |  |  |  | 
ERPYHG (not fully specified (C-terminus)) [peptide synthesized on A-Totda-Toyopearl resin] | 0.00 | 0.00 | 0.18 | 0.00 | 0.69 | 0.00 |  | not |  |  |  |  | 
FEPANP (not fully specified (C-terminus)) [peptide synthesized on A-Totda-Toyopearl resin] | 0.00 | 0.15 | 0.00 | 0.29 | 0.10 | 0.45 |  | bound thrombin |  |  |  |  | 
HQLWGSH | np | 0.58 | np | 0.95 | np | 1.76 |  | enhanced binding |  |  |  |  | 
GFRNGP [GERNGP] | 0.00 | 0.71 | 0.00 | 1.42 | 0.13 | 2.73 |  | bound thrombin |  |  |  |  | 
